Columns and labels:
[1] = biological target: Type I collagen (Nitta Gelatin Inc., type I-A: porcine origin) (porcine); assay: solid-phase binding assay on coated type I collagen, detection with anti-FLAG antibody M2
[2] = biological target: Gelatin (Sigma, G1890-100G: porcine origin) (porcine); assay: solid-phase binding assay on coated gelatin, detection with anti-laminin α5 antibody 5D6
[3] = biological target: Type I collagen (Nitta Gelatin Inc., type I-A: porcine origin) (porcine); assay: solid-phase binding assay on coated type I collagen, detection with anti-laminin α5 antibody 5D6

CBD-fused laminin 111E8 fragment 111βγ (from UniProt P25391 1878-2700)
fold binding activity against the form with a single CBD (111β) [1]: > 10 fold

CBD-fused laminin 121E8 fragment 121βγ (from UniProt P25391 1878-2700)
fold binding activity against the form with a single CBD (121β) [1]: > 10 fold

CBD-fused laminin 211E8 fragment 211βγ (from UniProt P24043 1900-2722)
fold binding activity against the form with a single CBD (211β) [1]: > 10 fold

CBD-fused laminin 221E8 fragment 221βγ (from UniProt P24043 1900-2722)
fold binding activity against the form with a single CBD (221β) [1]: > 10 fold

CBD-fused laminin 311E8 fragment 311βγ (from UniProt Q16787 579-1364)
fold binding activity against the form with a single CBD (311β) [1]: > 10 fold

CBD-fused laminin 321E8 fragment 321βγ (from UniProt Q16787 579-1364)
fold binding activity against the form with a single CBD (321β) [1]: > 10 fold

CBD-fused laminin 411E8 fragment 411βγ (from UniProt Q16363 629-1449)
fold binding activity against the form with a single CBD (411β) [1]: > 10 fold

CBD-fused laminin 421E8 fragment 421βγ (from UniProt Q16363 629-1449)
fold binding activity against the form with a single CBD (421β) [1]: > 10 fold

CBD-fused laminin 511E8 fragment CBD-E8(αβγ)
fold binding activity against the monovalent forms [2]: 3 fold | concentration at which the binding activity reached saturation [3]: 10 nM | fold binding activity against the forms with a single CBD (monovalent forms) [3]: 10 fold

CBD-fused laminin 511E8 fragment CBD-E8(βγ) (from UniProt O15230 2534-3327)
fold binding activity against the monovalent forms [2]: 3 fold | concentration at which the binding activity reached saturation [3]: 10 nM | fold binding activity against the forms with a single CBD (monovalent forms) [3]: 10 fold

CBD-fused laminin 521E8 fragment 521βγ (from UniProt O15230 2534-3327)
fold binding activity against the form with a single CBD (521β) [1]: > 10 fold
